Assay: pNPP hydrolysis, kinetic parameters
Type: biochemical
Details: generic substrate pNPP, 0-60 mM, pH 6.8, room temperature
Method: For pNPP hydrolysis, 200 ng of PTP was incubated with varing amounts of the generic substrate (0-60 mM) in assay buffer (50 mM Tris pH 6.8 and 2 mM DTT) in a total volume of 50 μl at room temperature. Plates were read at 405 nm and kinetic parameters were determined using a non linear regression programme (Graphpad, Prism®).

B1: Sap-1WT: wild-type PTP-Sap1 catalytic domain (GST fusion) tested on pNPP (protein)
chain: LKRRNKKKQQKPELRDLVFSSPGDIPAEDFADHVRKNERDSNCGFADEYQQLSLVGHSQSQMVASASENNAKNRYRNVLPYDWSRVPLKPIHEEPGSDYINASFMPGLWSPQEFIATQGPLPQTVGDFWRLVWEQQSHTLVMLTNCMEAGRVKCEHYWPLDSQPCTHGHLRVTLVGEEVMENWTVRELLLLQVEEQKTLSVRQFHYQAWPDHGVPSSPDTLLAFWRMLRQWLDQTMEGGPPIVHCSAGVGRTGTLIALDVLLRQLQSEGLLGPFSFVRKMRESRPLMVQTEAQYVFLHQCILRFLQQSAQAPAEKEVPYEDVENLIYENVAAIQAHKLEV
modifications: left off: a dimerising Fc or GST
notes: wild-type PTP-Sap1 catalytic domain (GST fusion) tested on pNPP
B1 showed a Km of 2.67 mM.

From patent US20060241020A1, “Protein tyrosine phosphatase inhibitors” (Applied Research Systems ARS Holdings N.V., priority 2002, published 2006)
